According to US20210395381A1 (OSSIANIX, published 2021):

Experiments:
recombinant mouse TfR-1 = biological target: T1, recombinant mouse TfR-1 (mouse, UniProt Q62351 89-763); test: phage ELISA
T1 construct: Recombinant protein coated at 1 ug/ml in the phage ELISA; also called mTfR1; mouse transferrin receptor-1

recombinant human TfR-1 = biological target: T2, recombinant human TfR-1 (human, UniProt P02786 89-760); test: phage ELISA
T2 construct: Recombinant protein coated at 1 ug/ml in the phage ELISA; also called hTfR1; human transferrin receptor-1
T2 sequence (P02786 89-760 limits assumed): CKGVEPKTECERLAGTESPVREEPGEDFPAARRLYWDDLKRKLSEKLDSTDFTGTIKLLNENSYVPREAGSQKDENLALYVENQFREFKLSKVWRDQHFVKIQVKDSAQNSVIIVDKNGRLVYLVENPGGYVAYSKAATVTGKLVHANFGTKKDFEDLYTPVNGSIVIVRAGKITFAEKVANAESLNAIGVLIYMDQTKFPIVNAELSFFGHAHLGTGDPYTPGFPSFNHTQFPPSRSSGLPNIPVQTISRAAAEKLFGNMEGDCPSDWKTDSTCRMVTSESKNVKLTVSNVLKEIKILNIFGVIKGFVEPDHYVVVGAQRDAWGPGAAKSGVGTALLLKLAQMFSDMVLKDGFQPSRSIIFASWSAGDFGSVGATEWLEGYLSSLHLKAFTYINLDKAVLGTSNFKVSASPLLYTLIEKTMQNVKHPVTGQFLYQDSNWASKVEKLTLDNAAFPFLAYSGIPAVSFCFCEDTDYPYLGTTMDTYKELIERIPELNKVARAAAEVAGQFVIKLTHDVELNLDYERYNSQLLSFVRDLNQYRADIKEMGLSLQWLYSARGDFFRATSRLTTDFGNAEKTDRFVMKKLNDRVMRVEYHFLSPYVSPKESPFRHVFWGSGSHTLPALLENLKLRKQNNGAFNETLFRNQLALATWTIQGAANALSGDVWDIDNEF

T1 sequence (Q62351 89-763 limits assumed): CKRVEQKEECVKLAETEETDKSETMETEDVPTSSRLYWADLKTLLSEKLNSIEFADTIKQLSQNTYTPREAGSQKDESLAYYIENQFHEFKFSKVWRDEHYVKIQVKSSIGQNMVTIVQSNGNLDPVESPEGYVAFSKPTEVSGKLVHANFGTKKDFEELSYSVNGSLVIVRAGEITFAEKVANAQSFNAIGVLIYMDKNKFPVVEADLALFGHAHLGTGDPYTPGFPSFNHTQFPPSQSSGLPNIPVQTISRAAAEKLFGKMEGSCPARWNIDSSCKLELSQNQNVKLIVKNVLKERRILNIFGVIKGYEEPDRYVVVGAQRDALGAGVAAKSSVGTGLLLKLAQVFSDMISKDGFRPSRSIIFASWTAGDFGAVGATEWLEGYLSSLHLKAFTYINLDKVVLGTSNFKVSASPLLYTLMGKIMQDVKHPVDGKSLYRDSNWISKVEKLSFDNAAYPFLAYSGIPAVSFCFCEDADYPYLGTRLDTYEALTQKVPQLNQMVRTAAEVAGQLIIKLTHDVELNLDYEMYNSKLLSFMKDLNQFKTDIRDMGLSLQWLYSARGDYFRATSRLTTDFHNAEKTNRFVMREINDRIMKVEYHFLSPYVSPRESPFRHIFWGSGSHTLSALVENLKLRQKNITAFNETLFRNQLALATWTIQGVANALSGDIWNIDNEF

Binder	A450 (recombinant mouse TfR-1) [A450]	A450 (recombinant human TfR-1) [A450]
Clone 8.11 (VNAR, VNAR on phage; Clone 8 framework) VNAR: ARVDQTPQTITKETGESLTINCVLRDSNCALPSTYWYRKKSGSTNEESISKGGRYVETVNSGSKSFSLRINDLTVEDSGTYRCKVIAQLSSIYPGCNYRKHDVYGDGTAVTVNA	0.101	0.066
Clone 8.14 (VNAR, VNAR on phage; Clone 8 framework) VNAR: ARVDQTPQTITKETGESLTINCVLRDSNCALPSTYWYRKKSGSTNEESISKGGRYVETVNSGSKSFSLRINDLTVEDSGTYRCKVIAQLSSILGYCYYRKHDVYGDGTAVTVNA	0.095	0.067
Clone 8.15 (VNAR, VNAR on phage; Clone 8 framework) VNAR: ARVDQTPQTITKETGESLTINCVLRDSNCALPSTYWYRKKSGSTNEESISKGGRYVETVNSGSKSFSLRINDLTVEDSGTYRCKVMWNLSSILRGCNYRKHDVYGDGTAVTVNA	0.095	0.095
Clone 8.23 (VNAR, VNAR on phage; Clone 8 framework) VNAR: ARVDQTPQTITKETGESLTINCVLRDSNCALPSTYWYRKKSGSTNEESISKGGRYVETVNSGSKSFSLRINDLTVEDSGTYRCKVIAQLPKQLRGCNYRKHDVYGDGTAVTVNA	0.085	0.055
Clone 8.12 (VNAR, VNAR on phage; Clone 8 framework) VNAR: ARVDQTPQTITKETGESLTINCVLRDSNCALPSTYWYRKKSGSTNEESISKGGRYVETVNSGSKSFSLRINDLTVEDSGTYRCKVRWRLSSILRGCNYRKHDVYGDGTAVTVNA	0.1	0.108
Clone 8.20 (VNAR, VNAR on phage; Clone 8 framework) VNAR: ARVDQTPQTITKETGESLTINCVLRDSNCALPSTYWYRKKSGSTNEESISKGGRYVETVNSGSKSFSLRINDLTVEDSGTYRCKVIAQLSSILRGCLDKKHDVYGDGTAVTVNA	0.087	0.084
Clone 8.21 (VNAR, VNAR on phage; Clone 8 framework) VNAR: ARVDQTPQTITKETGESLTINCVLRDSNCALPSTYWYRKKSGSTNEESISKGGRYVETVNSGSKSFSLRINDLTVEDSGTYRCKVIAHLSSFRDGCNYRKHDVYGDGTAVTVNA	0.086	0.058
Clone 8.16 (VNAR, VNAR on phage; Clone 8 framework) VNAR: ARVDQTPQTITKETGESLTINCVLRDSNCALPSTYWYRKKSGSTNEESISKGGRYVETVNSGSKSFSLRINDLTVEDSGTYRCKVIAKLFSILCGCNYRKHDVYGDGTAVTVNA	0.092	0.138
Clone 8.22 (VNAR, VNAR on phage; Clone 8 framework) VNAR: ARVDQTPQTITKETGESLTINCVLRDSNCALPSTYWYRKKSGSTNEESISKGGRYVETVNSGSKSFSLRINDLTVEDSGTYRCKVIAQQKSILRGCNYHKHDVYGDGTAVTVNA	0.086	0.066
Clone 8.13 (VNAR, VNAR on phage; Clone 8 framework) VNAR: ARVDQTPQTITKETGESLTINCVLRDSNCALPSTYWYRKKSGSTNEESISKGGRYVETVNSGSKSFSLRINDLTVEDSGTYRCKVIAQLALALRGCNYRKHDVYGDGTAVTVNA	0.096	0.075
Clone 8.24 (VNAR, VNAR on phage; Clone 8 framework) VNAR: ARVDQTPQTITKETGESLTINCVLRDSNCALPSTYWYRKKSGSTNEESISKGGRYVETVNSGSKSFSLRINDLTVEDSGTYRCKVIAQLSSILRGCNYFFPDVYGDGTAVTVNA	0.084	0.093
Clone 8.18 (VNAR, VNAR on phage; Clone 8 framework) VNAR: ARVDQTPQTITKETGESLTINCVLRDSNCALPSTYWYRKKSGSTNEESISKGGRYVETVNSGSKSFSLRINDLTVEDSGTYRCKVIAQLSSKYVGCNYRKHDVYGDGTAVTVNA	0.09	0.06
Clone 8.19 (VNAR, VNAR on phage; Clone 8 framework) VNAR: ARVDQTPQTITKETGESLTINCVLRDSNCALPSTYWYRKKSGSTNEESISKGGRYVETVNSGSKSFSLRINDLTVEDSGTYRCKVQSQLSIVLRGCNYRKHDVYGDGTAVTVNA	0.088	0.078
